Source: paper PMC9908889

Experiments:
MORF WH2 (Homo sapiens) [1] = assay: EMSA; settings: EMSA: 20-25 mM Tris-HCl pH 7.5, 20-150 mM NaCl, 0-0.2 mM EDTA, 0-5 mM DTT, 0-20% glycerol, 4 C, NCP197 EMSA: 10 mM Tris, 1 mM EDTA, 10 mM NaCl, 1 mM TCEP, FP: …
MORF WH1 (Homo sapiens) [2] = target: T1, MORF WH1 (Homo sapiens) (UniProt Q8WYB5); assay: EMSA; settings: His-tagged; EMSA: 20-25 mM Tris-HCl pH 7.5, 20-150 mM NaCl, 0-0.2 mM EDTA, 0-5 mM DTT, 0-20% glycerol, 4 C; NCP197 EMSA: 10 mM Tris, 1 mM EDTA, 10 mM NaCl, 1 mM TCEP; FP: …
T1 sequence: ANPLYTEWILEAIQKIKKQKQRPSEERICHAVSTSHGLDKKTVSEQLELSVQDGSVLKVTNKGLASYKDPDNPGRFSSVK

MORF WH1 (Homo sapiens) [3] = target: T1, MORF WH1 (Homo sapiens); assay: fluorescence polarization; settings: EMSA: 20-25 mM Tris-HCl pH 7.5, 20-150 mM NaCl, 0-0.2 mM EDTA, 0-5 mM DTT, 0-20% glycerol, 4 C; NCP197 EMSA: 10 mM Tris, 1 mM EDTA, 10 mM NaCl, 1 mM TCEP; FP: …
[4] = target: T2, MORF WH1-WH2 (Homo sapiens) (UniProt Q8WYB5); assay: fluorescence polarization; settings: EMSA: 20-25 mM Tris-HCl pH 7.5, 20-150 mM NaCl, 0-0.2 mM EDTA, 0-5 mM DTT, 0-20% glycerol, 4 C; NCP197 EMSA: 10 mM Tris, 1 mM EDTA, 10 mM NaCl, 1 mM TCEP; FP: …
T2 sequence: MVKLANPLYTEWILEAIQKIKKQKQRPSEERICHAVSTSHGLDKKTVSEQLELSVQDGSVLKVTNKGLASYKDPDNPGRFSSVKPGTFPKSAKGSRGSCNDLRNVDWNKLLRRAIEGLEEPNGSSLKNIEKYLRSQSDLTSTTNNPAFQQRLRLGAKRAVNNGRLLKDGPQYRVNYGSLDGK

MORF WH2 (Homo sapiens) [5] = assay: fluorescence polarization; settings: EMSA: 20-25 mM Tris-HCl pH 7.5, 20-150 mM NaCl, 0-0.2 mM EDTA, 0-5 mM DTT, 0-20% glycerol, 4 C, NCP197 EMSA: 10 mM Tris, 1 mM EDTA, 10 mM NaCl, 1 mM TCEP, FP: …

Substance	K half (MORF WH1 (Homo sapiens) [3])	K half [4]	further results
A-DNA15 (15 bp A-rich)	–	–	Kd (MORF WH2 (Homo sapiens) [1]; source data name GST-MORF WH2): 7.8 µM
CpG-DNA16	–	–	Kd (MORF WH1 (Homo sapiens) [2]): 2 µM
NCP147	9 µM	12 nM	K half (MORF WH2 (Homo sapiens) [5]): 1000 nM
DNA147 (601 Widom)	15 µM	62 nM	–
C-DNA15 (15 bp C-rich)	–	–	Kd (MORF WH2 (Homo sapiens) [1]): 18 µM
NCP207	0.3 µM	7 nM	K half (MORF WH2 (Homo sapiens) [5]; text says NCP187, source data and Methods say NCP207): 1400 nM
